This note sets out measurements from patent US20250215092A1 (ZHEJIANG NANOMAB TECHNOLOGY CENTER, published 2025).

Assay [1] has as its target T1, human EGFR.His antigen (Acro, Cat #EGR-H522a) (human, UniProt P00533 25-645).
T1 construct: extracellular domain; Bought protein; also called EGFR his tag protein; full-length EGFR extracellular domain protein; not shown: His tag
Description: competition ELISA: EGFR his tag protein coated, antibody titrated together with Human EGF-mouse IgG2a Fc, bound EGF detected with HRP anti-mouse IgG, unit taken from the concentration axis (paragraph 62 says nM); OD450 falls only from about 2.4 to about 2.0-2.2 [table]. The protocol:
Briefly, EGFR his tag protein was diluted with PBS to 2 μg/mL, and 100 μL of the antigen was added to each well of an ELISA plate and coated overnight at 4° C. The next day, the plates were washed twice with PBST (containing 0.5% TWEEN-20), and then blocked with 3% BSA at 37° C. for 1.5 h, followed by two washes with PBST. […] VHH-IgG4 antibodies were diluted to 2000 nM and then serially diluted 4-fold for 8 gradients. […] After washing 3 times, HRP goat anti-mouse IgG (Goat anti-Mouse IgG) (H+L) antibody (Abcam, cat #ab205719) diluted at 1:3000 was added to each well, and the plate was incubated at 37° C. for 40 min. The plates were then washed 3 times with PBST, and 100 μL of TMB substrate was added to each well and allowed to react for 3-5 min. The reaction was stopped by adding 100 μL of 3N hydrochloric acid per well. After stopping the reaction, the optical density at 450/650 nm was measured using a Tecan microplate reader. The dose-response curve was plotted, and the IC50 was calculated using GraphPad Prism 8.0 software.
On the technique in general: In an ELISA, binding on a coated surface is turned into a signal by an enzyme label.

The target of assay [2] is T2, EGFR on SKOV3 and Aspc-1 tumor cells (human, UniProt P00533).
T2 construct: endogenous, on the cell surface; the cell line is named under assay; also called tumor cell EGFR
The assay is described as follows: flow cytometry on Aspc-1 tumor cells, anti-human IgG PE, MFI, curve fit; unit from the concentration axis and paragraph 62; the curve is barely above Isotype 2: MFI at most about 1500 [table]. As for the experimental part:
Two kinds of tumor cells, SKOV3 and Aspc-1, expressing EGFR were respectively plated in 96 well plates, with 3×10⁵ cells per well, and then the tumor cells were incubated with gradient diluted VHH-IgG4 antibody. After incubation on ice for half an hour, anti human IgG PE (Jackson Immuno Research, Code: 109-117-008, Lot:145501) was added for incubation, and then CytoFLEX flow cytometry was used for detection. The EC50 of the antibody was calculated by curve fitting.
In general terms: In flow cytometry, cells or beads pass a laser one at a time.

B1: E007 VHH-IgG4 antibody (antibody, V domains shown, not shown: a dimerising Fc or GST)
VH: EVQLVESGGGLVQPGGSLRLSCEASGFSFSDHTMRWHRQAAGKNLELVAYITPAGDIIKYADSVQGRFTISRDNAKNMLYLQMDSLRPDDTAVYRCNALVSAAVRASDYWGQGTQVTVSS
Take B1: in assay [1], the 50% inhibitory concentration (IC50) (usually the point on the concentration scale where inhibition reaches its midpoint) came to 0.152 µg/mL.

B2: E004 VHH-IgG4 antibody (antibody, V domains shown, not shown: a dimerising Fc or GST)
VH: EVQLVESGGGLAQSGGSLRLACEASGFPFETYAMSWARQTPGNEPEWVAGIFPDGKHTAYAHSVKGRFTISRVNANNTVYLQMDSLKPEDTAVYYCAKDLPFFATPSFYIGYWGQGTLVTVSS
For B2, a half-maximal effect in assay [2] (EC50) was put at 3.6 nM.
